Here are results for one molecule from patent US20240124575A1 (SIMCERE ZAIMING PHARMACEUTICAL, published 2024).

In this assay the target is T1, human CD33 on CHO-K1 cells (CHO-K1-human CD33) (human, UniProt P20138 18-364).
T1 construct: whole, on cells; stably transfected CHO-K1 clones; also called CHO-K1-hCD33-B8; CHO-K1-human CD33 B8
Description: FACS, CHO-K1-human CD33 cells. On the procedure:
The desired cells were expanded to a logarithmic growth phase in a T-75 cell culture flask. For adherent cells CHO-K1, the culture medium was removed by pipetting, and the cells were washed twice with a PBS buffer, digested with trypsin, and washed twice with a PBS buffer again after the digestion was stopped. For suspension cells U937, the medium supernatant was discarded by direct centrifugation, and the cell pellet was washed twice with PBS, and then incubated with a buffer containing human Fc Block (purchased from BD, Cat. No. 564220) for 15 min. After the cells obtained in the last step were subjected to cell counting, the cell pellet was resuspended to 2×10⁶ cells/mL with a blocking solution [PBS+2% (w/w) BSA] and added to a 96-well FACS reaction plate at 50 μL/well. The VHH-Fc antibody (a sample to be tested) was added at 50 μL/well, and the plate was incubated on ice for 2 h. […] After the plate was centrifuged and washed 5 times with a PBS buffer, the results were assayed and analyzed by FACS (FACS Canto™, purchased from BD Biosciences), so as to obtain the mean fluorescence intensity (MFI) of cells. Then, analysis was performed by software (GraphPad Prism8), data were fitted, and EC50 values were calculated.

T1 sequence (P20138 18-364): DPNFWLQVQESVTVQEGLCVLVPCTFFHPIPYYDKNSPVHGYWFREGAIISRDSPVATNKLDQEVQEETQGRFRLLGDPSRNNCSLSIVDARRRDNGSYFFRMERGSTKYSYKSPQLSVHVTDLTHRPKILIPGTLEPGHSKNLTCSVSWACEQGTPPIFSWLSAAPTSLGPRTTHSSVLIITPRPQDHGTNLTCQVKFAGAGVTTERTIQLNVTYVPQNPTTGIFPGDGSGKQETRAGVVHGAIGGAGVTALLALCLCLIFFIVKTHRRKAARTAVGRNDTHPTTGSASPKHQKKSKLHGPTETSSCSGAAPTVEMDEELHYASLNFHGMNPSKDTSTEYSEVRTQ

B1: C33B904 hIgG1 (antibody, V domains shown)
VH: EVQLVESGGGLVQPGRSLRLSCAASGFTFDDYAMHWVRQAPGKGLEWVSGIGWSGGSIVYADSVKGRFTISRDNAKNSLYLQMNSLRAEDTALYYCAKDSPYGDFFDYWGQGTLVTVSS
VL: DIVMTQSPDSLAVSLGERATINCKSSQTVFYSSNNKNYLAWYQQKPGQPPKLLISWASTRKSGVPDRFSGSGSGTDFTLTVSSLQAEDVAVYYCQHYYSTPYTFGQGTKLEIKR
notes: intact human IgG1; variable regions from US20190382481A1; also called C33B3904; C331B904
Regarding B1, the midpoint of the response, the EC50, lay at 4.53 nM and the “Max MFI” value was 12400 MFI.

Usually EC50 stands for the concentration that produces a half-maximal response. Lower therefore signals an effect from little substance.
